From article PMC6868513
Several values for one entry are separate records, joined by “and”; a condition that tells them apart may be missing. Identical values can stand only once. Blank lines part the entries; values can stand above or below the molecule they belong to.

Tests used:
soluble Vγ4Vδ1 TCR = assay: flow cytometry on cells; conditions: anti-His mAb, read off a plot
[1] = molecular target: BTNL3 IgV domain (wild type) (UniProt Q6UXE8); assay: SPR; conditions: parent: est. 1; read off a plot
[2] = molecular target: Soluble endothelial protein C receptor (EPCR) (UniProt Q9UNN8); assay: SPR; conditions: parent: est. 1; read off a plot
[3] = molecular target: BTNL3.8 heterodimer on 293T cells (human) (UniProt Q6UXE8)
[4] = molecular target: LES Vγ4Vδ5 TCR, soluble, wild type (human); assay: ITC; iTC200; 20°C; 20mM Tris pH 8, 50 mM NaCl; TCR in the cell at 70 μM, BTNL3 at ten-fold higher concentration titrated as 20 × 2 μl injections; single independent binding site model
[5] = molecular target: LES Vγ4Vδ5 TCR, soluble, wild type (human); assay: SPR; BIAcore3000; biotinylated wt or mutant LES TCR (1000-3500 RU) captured on streptavidin-coated CM5 chip; analyte (BTNL3 or BTNL8 IgV, EPCR) 1-200 μM; HBS-EP; 25°C; equilibrium analysis
[6] = molecular target: LES Vγ4Vδ5 TCR, soluble, wild type (human); assay: as above; remark: listed apart in the source
[7] = molecular target: LES Vγ4Vδ5 TCR, soluble, wild type (human); assay: SPR; competition: wt EPCR (2500-3000 RU) immobilised on the chip; LES TCR injected at 12.5 μM with increasing BTNL3 IgV (3.5-113 μM) or BTNL8 IgV (2.2-70.5 μM); response as percent of that without competitor
[8] = soluble Vγ4Vδ1 0.1 µg/ml (read from x axis), parent: est. 9.0
[9] = soluble Vγ4Vδ1 10 µg/ml (read from x axis), parent: est. 31
[10] = soluble Vγ4Vδ1 about 2 µg/ml (read from x axis), parent: est. 16

Chain of UniProt Q9UNN8 (Q9UNN8 whole entry, looked up, tested part not stated): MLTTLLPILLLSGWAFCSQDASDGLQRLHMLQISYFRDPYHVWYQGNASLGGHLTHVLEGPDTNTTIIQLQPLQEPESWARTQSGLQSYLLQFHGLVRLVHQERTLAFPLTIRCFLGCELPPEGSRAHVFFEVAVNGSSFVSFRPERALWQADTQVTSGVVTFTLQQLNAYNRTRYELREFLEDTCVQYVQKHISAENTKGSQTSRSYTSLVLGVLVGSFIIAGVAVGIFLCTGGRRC
Chain of UniProt Q6UXE8 (Q6UXE8 whole entry, looked up, the tested form may be a part): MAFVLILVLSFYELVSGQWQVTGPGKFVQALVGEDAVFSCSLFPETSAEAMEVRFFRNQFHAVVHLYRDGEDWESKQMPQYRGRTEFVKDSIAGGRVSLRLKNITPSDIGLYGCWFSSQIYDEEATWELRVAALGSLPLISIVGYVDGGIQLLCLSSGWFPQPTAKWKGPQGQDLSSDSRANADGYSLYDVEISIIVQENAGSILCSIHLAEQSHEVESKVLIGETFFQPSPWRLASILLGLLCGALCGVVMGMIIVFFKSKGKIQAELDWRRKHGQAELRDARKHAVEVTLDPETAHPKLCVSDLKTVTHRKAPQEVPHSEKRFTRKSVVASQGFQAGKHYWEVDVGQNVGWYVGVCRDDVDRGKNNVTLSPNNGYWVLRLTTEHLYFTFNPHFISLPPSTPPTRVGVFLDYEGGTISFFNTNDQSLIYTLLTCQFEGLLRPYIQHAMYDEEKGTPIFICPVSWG

Molecule: BTNL3.8 heterodimer on 293T cells (from UniProt Q6UXE8;Q6UX41) EDWESK>KDQPFM (in BTNL3)
response (gMFI fold relative to ctrl) (soluble Vγ4Vδ1 TCR; [8]): 4.1
response (gMFI fold relative to ctrl) (soluble Vγ4Vδ1 TCR; [9]): 7.7
response (gMFI fold relative to ctrl) (soluble Vγ4Vδ1 TCR; [10]): 5

Molecule: BTNL3.8 heterodimer on 293T cells (from UniProt Q6UXE8;Q6UX41) NQFHA>GQFSS (in BTNL3)
response (gMFI fold relative to ctrl) (soluble Vγ4Vδ1 TCR; [8]): 1.2
response (gMFI fold relative to ctrl) (soluble Vγ4Vδ1 TCR; [9]): 1.2
response (gMFI fold relative to ctrl) (soluble Vγ4Vδ1 TCR; [10]): 1.4

Molecule: LES Vγ4Vδ5 TCR, soluble, wild type γ:EGST>AWRY (CDR1)
ratio to parent [1]: 1.3
ratio to parent [2]: 6.6

Molecule: LES Vγ4Vδ5 TCR, soluble, wild type γ:…>ATWEG--YKKLF (CDR3, as aligned)
ratio to parent [1]: 0.72

Molecule: LES Vγ4Vδ5 TCR, soluble, wild type γ:…>… (HV4; D>Y; G>A)
ratio to parent [2]: 0.53

Molecule: LES Vγ4Vδ5 TCR, soluble, wild type δ:NSMF>YRKS (CDR1)
ratio to parent [1]: 0.6
ratio to parent [2]: 0.25

Molecule: LES Vγ4Vδ5 TCR, soluble, wild type δ:SSIK>RYRE (CDR2)
ratio to parent [1]: 0.88
ratio to parent [2]: 1

Molecule: mo5 Vγ7Vδ2-2 TCR with the HV4 loop of human Vγ4, on Jurkat 76 cells
CD69 expression on transduced J76 cells in response to BTNL3.8-expressing target cells, over control (flow cytometry) [3]: > 3 fold

Next, values leading:

ratio to parent [1]: 0.066
ratio to parent [2]: 1.8
Molecule: LES Vγ4Vδ5 TCR, soluble, wild type γ:DSYT>KYSR (CDR2)

ratio to parent [1]: 0.38
ratio to parent [2]: 1.4
Molecule: LES Vγ4Vδ5 TCR, soluble, wild type γ:…>… (HV4; K>N; M>L)

ratio to parent [1]: 0.3
Molecule: LES Vγ4Vδ5 TCR, soluble, wild type δ:RGYTG>EGSKW (CDR3)

CD69 expression on transduced J76 cells in response to BTNL3.8-expressing target cells, over control (flow cytometry) [3]: > 3 fold
TCR downmodulation on transduced J76 cells after co-culture with 293T.L3L8 cells, against WT Vγ4 TCR transductants (flow cytometry) ([3]; scale: % of the TCR downmodulation of WT Vγ4 TCR transductants): 90
Molecule: mo5 Vγ7Vδ2-2 TCR with the CDR2 and HV4 loops of human Vγ4, on Jurkat 76 cells

Kd [4]: 3.5 µM
dH [4]: -8.1 kcal/mol
Kd [5]: 15 to 25 µM and 20.7 µM
Kd [6]: 22.1 µM and 20.9 µM
percent of LES TCR binding to EPCR left with the competitor [7]: < 40%
B1: BTNL3 IgV domain (wild type) (domain or fragment)
chain: QWQVTGPGKFVQALVGEDAVFSCSLFPETSAEAMEVRFFRNQFHAVVHLYRDGEDWESKQMPQYRGRTEFVKDSIAGGRVSLRLKNITPSDIGLYGCWFSSQIYDEEATWELRV
